Columns and labels:
Conditions in all cases: domain or fragment, No outside chemistry for unlabelled SAXS/AUC samples. Limits are not given, convention is residues 186-320 of short isoform A1-A (isoform B insert 252-303 absent). The hexapeptide 259-264 (311-316 in P09651) is taken as deleted because the printed 7.5 mg/mL = 0.598 mM gives about 12.54 kDa, which fits the delta-hexa form plus an assumed N-terminal GS cleavage scar (about 12.53 kDa), modification not given
[1] = target: low-complexity domain of hnRNPA1 (A1-LCD); test: AUC; isodesmic model, 50 mM NaCl
[2] = target: low-complexity domain of hnRNPA1 (A1-LCD); test: AUC; two-step isodesmic model, KD1 (first step), 50 mM NaCl
[3] = target: low-complexity domain of hnRNPA1 (A1-LCD); test: AUC; two-step isodesmic model, KD2 (later steps), 50 mM NaCl

Kd [1]: 3000 µM
Kd [2]: 5400 µM
Kd [3]: 2200 µM
B1: low-complexity domain of hnRNPA1 (A1-LCD) (protein)
chain: MASASSSQRGRSGSGNFGGGRGGGFGGNDNFGRGGNFSGRGGFGGSRGGGGYGGSGDGYNGFGNDGSNFGGGGNYNNQSSNFGPMKGGNFGGRSSGPYGGGGQYFAKPRNQGGYGGSSSSSSYGSGRRF
